Measurements published in patent US20110064733A1.

Legend:
[1] = target: Muc1 mucin bearing the CA6 sialoglycotope (DS6 antigen), as expressed by CA6-positive human tumour cell lines (human) (UniProt P15941); test: flow cytometry on KB cells
[2] = target: Muc1 mucin bearing the CA6 sialoglycotope (DS6 antigen), as expressed by CA6-positive human tumour cell lines (human) (UniProt P15941); test: flow cytometry on CaOV3 cells
[3] = target: Muc1 mucin bearing the CA6 sialoglycotope (DS6 antigen), as expressed by CA6-positive human tumour cell lines (human) (UniProt P15941); test: flow cytometry on MCF7 cells
[4] = target: Muc1 mucin bearing the CA6 sialoglycotope (DS6 antigen), as expressed by CA6-positive human tumour cell lines (human) (UniProt P15941); test: flow cytometry on HeLa cells
[5] = target: Muc1 mucin bearing the CA6 sialoglycotope (DS6 antigen), as expressed by CA6-positive human tumour cell lines (human) (UniProt P15941); test: flow cytometry on BT549 cells

Substance: CM1 antibody (Muc1 VNTR antibody)
- MMF (maximum mean relative fluorescence) (relative fluorescence) [1]: 338
- MMF (maximum mean relative fluorescence) (relative fluorescence) [2]: 1030
- MMF (maximum mean relative fluorescence) (relative fluorescence) [3]: 1020
- MMF (maximum mean relative fluorescence) (relative fluorescence) [4]: 335
- MMF (maximum mean relative fluorescence) (relative fluorescence) [5]: 188
